B1: Spindle assembly checkpoint component MAD3 (Saccharomyces cerevisiae), P47074 (parent)
chain: MKAYAKKRISYMPSSPSQNVINFEEIETQKENILPLKEGRSAAALSKAIHQPLVEINQVKSSFEQRLIDELPALSDPITLYLEYIKWLNNAYPQGGNSKQSGMLTLLERCLSHLKDLERYRNDVRFLKIWFWYIELFTRNSFMESRDIFMYMLRNGIGSELASFYEEFTNLLIQKEKFQYAVKILQLGIKNKARPNKVLEDRLNHLLRELGENNIQLGNEISMDSLESTVLGKTRSEFVNRLELANQNGTSSDVNLTKNNVFVDGEESDVELFETPNRGVYRDGWENFDLKAERNKENNLRISLLEANTNLGELKQHEMLSQKKRPYDEKLPIFRDSIGRSDPVYQMINTKDQKPEKIDCNFKLIYCEDEESKGGRLEFSLEEVLAISRNVYKRVRTNRKHPREANLGQEESANQKEAEAQSKRPKISRKALVSKSLTPSNQGRMFSGEEYINCPMTPKGRSTETSDIISAVKPRQLTPILEMRESNSFSQSKNSEIISDDDKSSSSFISYPPQR
partner: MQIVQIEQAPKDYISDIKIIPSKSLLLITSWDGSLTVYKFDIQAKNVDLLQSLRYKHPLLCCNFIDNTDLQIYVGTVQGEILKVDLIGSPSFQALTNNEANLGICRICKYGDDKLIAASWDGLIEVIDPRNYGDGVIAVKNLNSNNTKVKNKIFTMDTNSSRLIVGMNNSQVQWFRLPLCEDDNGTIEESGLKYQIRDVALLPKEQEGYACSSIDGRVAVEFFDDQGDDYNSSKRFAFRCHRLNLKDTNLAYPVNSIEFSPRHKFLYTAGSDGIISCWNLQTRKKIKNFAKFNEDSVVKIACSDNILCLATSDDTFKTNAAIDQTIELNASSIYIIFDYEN

Variants of: B1
Conditions: with bub3_yeast BUB3, P26449

| Variant | effect of a mutation on the interaction |
| --- | --- |
| E382K | decreasing interaction |

From IntAct's records for PubMed 10704439
